Measurements reported in patent publication JP2016028048A (dated 2016).

T1: ヒト組織因子経路インヒビター (human TFPI) (human, UniProt P10646 29-304, limits assumed)
T1 construct: Coated on Maxisorp plates (ELISA) or amine-coupled to a CM5 chip (Biacore); also called ヒトTFPI; hTFPI
T1 sequence (looked up): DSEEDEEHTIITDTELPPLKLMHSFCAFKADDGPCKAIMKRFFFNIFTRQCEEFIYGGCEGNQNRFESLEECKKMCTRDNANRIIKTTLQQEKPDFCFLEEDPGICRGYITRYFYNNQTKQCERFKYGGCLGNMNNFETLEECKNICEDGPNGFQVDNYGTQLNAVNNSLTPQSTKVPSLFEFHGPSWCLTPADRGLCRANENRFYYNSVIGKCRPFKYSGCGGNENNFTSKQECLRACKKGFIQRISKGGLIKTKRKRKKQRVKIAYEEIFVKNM


Target: T1, ヒト組織因子経路インヒビター (human TFPI)
Test: ELISA, Fab in bacterial lysate on human TFPI-coated plate

binding result | Binder
binds | TP-2C1 (Fab, V domains shown, Human Fab (HuCal Gold), made in E. coli TG1) VH: QVQLVESGGGLVQPGGSLRLSCAASGFTFSPYVMSWVRQAPGKGLEWVSSISSSSSNTYYADSVKGRFTISRDNSKNTLYLQMNSLRAEDTAVYYCARGDSYMYDVWGQGTLVTVSS VL: DIELTQPPSVSVAPGQTARISCSGDSIGSYYAHWYQQKPGQAPVLVIYYDSKRPSGIPERFSGSNSGNTATLTISGTQAEDEADYYCQAYTGQSISRVFGGGTKLTVLG
binds | TP-2A5.1 (Fab, V domains shown, Human Fab (HuCal Gold), made in E. coli TG1) VH: QVQLVESGGGLVQPGGSLRLSCAASGFTFSSYGSWVRQAPGKGLEWVSVISGSGSSTYYADSVKGRFTISRDNSKNTLYLQMNSLRAEDTAVYYCARVNISTHFDVWGQGTLVTVSS VL: DIELTQPPSVSVAPGQTARISCSGDNIPEKYVHWYQQKPGQAPVLVIHGDNNRPSGIPERFSGSNSGNTATLTISGTQAEDEADYYCQSFDAGSYFVFGGGTKLTVLG
binds | TP-2A2 (Fab, V domains shown, Human Fab (HuCal Gold), made in E. coli TG1) VH: QVQLVESGGGLVQPGGSLRLSCAASGFTFSNNAMNWVRQAPGKGLEWVSTISYDGSNTYYADSVKGRFTISRDNSKNTLYLQMNSLRAEDTAVYYCARQAGGWTYSYTDVWGQGTLVTVSS VL: DIELTQPPSVSVAPGQTARISCSGDNIRTYYVHWYQQKPGQAPVVVIYGDSKRPSGIPERFSGSNSGNTATLTISGTQAEDEADYYCQSYDSEADSEVFGGGTKLTVLG
binds | TP-2G7 (Fab, V domains shown, Human Fab (HuCal Gold), made in E. coli TG1) VH: QVQLVESGGGLVQPGGSLRLSCAASGFTFNSYAMSWVRQAPGKGLEWVSNISSNSSNTYYADSVKGRFTISRDNSKNTLYLQMNSLRAEDTAVYYCARKGGGEHGFFPSDIWGQGTLVTVSS VL: DIELTQPPSVSVAPGQTARISCSGDNLGTYYVHWYQQKPGQAPVLVIYGDNNRPSGIPERFSGSNSGNTATLTISGTQAEDEADYYCQTYDSNNESIVFGGGTKLTVLG
binds | TP-2G9 (Fab, V domains shown, Human Fab (HuCal Gold), made in E. coli TG1) VH: QVQLVESGGGLVQPGGSLRLSCAASGFTFNSYAMTWVRQAPGKGLEWVSAIKSDGSNTYYADSVKGRFTISRDNSKNTLYLQMNSLRAEDTAVYYCARNDSGWFDVWGQGTLVTVSS VL: DIALTQPASVSGSPGQSITISCTGTSSDLGGFNTVSWYQQHPGKAPKLMIYSVSSRPSGVSNRFSGSKSGNTASLTISGLQAEDEADYYCQSYDLNNLVFGGGTKLTVLG
binds | TP-3C1 (Fab, V domains shown, Human Fab (HuCal Gold), made in E. coli TG1; VL is the same entry as TP-2G9, VH the same entry as TP-3F2 (so in the source)) VH: QVQLVESGGGLVQPGGSLRLSCAASGFTFSSYSMHWVRQAPGKGLEWVSGISYSSSFTYYADSVKGRFTISRDNSKNTLYLQMNSLRAEDTAVYYCARALGGGVDYWGQGTLVTVSS VL: DIALTQPASVSGSPGQSITISCTGTSSDLGGFNTVSWYQQHPGKAPKLMIYSVSSRPSGVSNRFSGSKSGNTASLTISGLQAEDEADYYCQSYDLNNLVFGGGTKLTVLG
binds | TP-2D7 (Fab, V domains shown, Human Fab (HuCal Gold), made in E. coli TG1) VH: QVQLQQSGPGLVKPSQTLSLTCAISGDSVSSNSAAWGWIRQSPGRGLEWLGLIYYRSKWYNDYAVSVKSRITINPDTSKNQFSLQLNSVTPEDTAVYYCARFGDTNRNGTDVWGQGTLVTVSS VL: not shown
binds | TP-3C3 (Fab, V domains shown, Human Fab (HuCal Gold), made in E. coli TG1) VH: QVQLQQSGPGLVKPSQTLSLTCAISGDSVSSNSAAWGWIRQSPGRGLEWLGVIYYRSKWYNDYAVSVKSRITINPDTSKNQFSLQLNSVTPEDTAVYYCARARAKKSGGFDYWGQGTLVTVSS VL: DIQMTQSPSSLSASVGDRVTITCRASQSINPYLNWYQQKPGKAPKLLIYAASNLQSGVPSRFSGSGSGTDFTLTISSLQPEDFAVYYCQQLDNRSITFGQGTKVEIKR
binds | TP-2A6 (Fab, V domains shown, Human Fab (HuCal Gold), made in E. coli TG1) VH: QVQLVESGGGLVQPGGSLRLSCAASGFTFSRYAMSWVRQAPGKGLEWVSSIISSSSETYYADSVKGRFTISRDNSKNTLYLQMNSLRAEDTAVYYCARLMGYGHYYPFDYWGQGTLVTVSS VL: DIELTQPPSVSVAPGQTARISCSGDKIGSKYVYWYQQKPGQAPVLVIYDSNRPSGIPERFSGSNSGNTATLTISGTQAEDEADYYCASYDSIYSYWVFGGGTKLTVLG
binds | TP-2B9 (Fab, V domains shown, Human Fab (HuCal Gold), made in E. coli TG1) VH: QVQLQQSGPGLVKPSQTLSLTCAISGDSVSSNSAAWGWIRQSPGRGLEWLGMIYHRSKWYNDYAVSVKSRITINPDTSKNQFSLQLNSVTPEDTAVYYCARYSSIGHMDYWGQGTLVTVSS VL: DIQMTQSPSSLSASVGDRVTITCRASQSIRSYLAWYQQKPGKAPKLLIYKASNLQSGVPSRFSGSGSGTDFTLTISSLQPEDFAVYYCHQYSDSPVTFGQGTKVEIKR
binds | TP-2G5 (Fab, V domains shown, Human Fab (HuCal Gold), made in E. coli TG1) VH: QVQLQQSGPGLVKPSQTLSLTCAISGDSVSSNSAAWSWIRQSPGRGLEWLGFIYYRSKWYNDYAVSVKSRITINPDTSKNQFSLQLNSVTPEDTAVYYCARHNPDLGFDYWGQGTLVTVSS VL: not shown
binds | TP-2E3 (Fab, V domains shown, Human Fab (HuCal Gold), made in E. coli TG1) VH: QVQLQQSGPGLVKPSQTLSLTCAISGDSVSSNSAAWGWIRQSPGRGLEWLGMIYYRSKWYNDYAVSVKSRITINPDTSKNQFSLQLNSVTPEDTAVYYCARVNQYTSSDYWGQGTLVTVSS VL: DIALTQPASVSGSPGQSITISCTGTSSDIGGYNYVSWYQQHPGKAPKLMIYGVNYRPSGVSNRFSGSKSGNTASLTISGLQAEDEADYYCSSADKFTMSIVFGGGTKLTVLG
binds | TP-3C2 (Fab, V domains shown, Human Fab (HuCal Gold), made in E. coli TG1) VH: QVQLQQSGPGLVKPSQTLSLTCAISGDSVSSSSAAWSWIRQSPGRGLEWLGMIYYRSKWYNHYAVSVKSRITINPDTSKNQFSLQLNSVTPEDTAVYYCARGGSGVMDVWGQGTLVTVSS VL: DIQMTQSPSSLSASVGDRVTITCRASQSITNYLNWYQQKPGKAPKLLIYDVSNLQSGVPSRFSGSGSGTDFTLTISSLQPEDFAVYYCQQYSGYPLTFGQGTKVEIKR
binds | TP-2H10 (Fab, V domains shown, Human Fab (HuCal Gold), made in E. coli TG1) VH: QVQLQQSGPGLVKPSQTLSLTCAISGDSVSSNGAAWGWIRQSPGRGLEWLGFIYRRSKWYNSYAVSVKSRITINPDTSKNQFSLQLNSVTPEDTAVYYCARQDGMGGMDSWGQGTLVTVSS VL: not shown
binds | TP-3A2 (Fab, V domains shown, Human Fab (HuCal Gold), made in E. coli TG1) VH: QVQLVESGGGLVQPGGSLRLSCAASGFTFSNYYLSWVRQAPGKGLEWVSGISYNGSSTNYADSVKGRFTISRDNSKNTLYLQMNSLRAEDTAVYYCARMWRYSLGADSWGQGTLVTVSS VL: DIELTQPPSVSVAPGQTARISCSGDNIGSRYAYWYQQKPGQAPVVVIYDDSDRPSGIPERFSGSNSGNTATLTISGTQAEDEADYYCAAYTFYARTVFGGGTKLTVLG
binds | TP-2F9 (Fab, V domains shown, Human Fab (HuCal Gold), made in E. coli TG1) VH: QVQLVESGGGLVQPGGSLRLSCAASGFTFYKYAMHWVRQAPGKGLEWVSGIQYDGSYTYYADSVKGRFTISRDNSKNTLYLQMNSLRAEDTAVYYCARYYCKCVDLWGQGTLVTVSS VL: not shown
binds | TP-3A3 (Fab, V domains shown, Human Fab (HuCal Gold), made in E. coli TG1) VH: QVQLVESGGGLVQPGGSLRLSCAASGFTFNNNAISWVRQAPGKGLEWVSAINSSSSSTSYADSVKGRFTISRDNSKNTLYLQMNSLRAEDTAVYYCARGHHRGHSWASFIDYWGQGTLVTVSS VL: DIELTQPPSVSVAPGQTARISCSGDNIGSKYVHWYQQKPGQAPVVVIYEDSDRPSGIPERFSGSNSGNTATLTISGTQAEDEADYYCQSWDKSEGYVFGGGTKLTVLG
binds | TP-2G2 (Fab, V domains shown, Human Fab (HuCal Gold), made in E. coli TG1) VH: QVQLVESGGGLVQPGGSLRLSCAASGFTFSSYAMNWVRQAPGKGLEWVSAILSDGSSTSYADSVKGRFTISRDNSKNTLYLQMNSLRAEDTAVYYCARYPDWGWYTDVWGQGTLVTVSS VL: DIELTQPPSVSVAPGQTARISCSGDNIRKFYVHWYQQKPGQAPVLVIYGTNKRPSGIPERFSGSNSGNTATLTISGTQAEDEADYYCQSYDSKFNTVFGGGTKLTVLG
binds | TP-2G4 (Fab, V domains shown, Human Fab (HuCal Gold), made in E. coli TG1) VH: QVQLVESGGGLVQPGGSLRLSCAASGFTFSSYAMTWVRQAPGKGLEWVSNISYSGSNTYYADSVKGRFTISRDNSKNTLYLQMNSLRAEDTAVYYCARVGYYYGFDYWGQGTLVTVSS VL: DIELTQPPSVSVAPGQTARISCSGDALRKHYVYWYQQKPGQAPVLVIYGDNNRPSGIPERFSGSNSGNTATLTISGTQAEDEADYYCQSYDKPYPILVFGGGTKLTVLG
binds | TP-3B3 (Fab, V domains shown, Human Fab (HuCal Gold), made in E. coli TG1) VH: QVQLVESGGGLVQPGGSLRLSCAASGFTFSSYGMHWVRQAPGKGLEWVSNISYMGSNTNYADSVKGRFTISRDNSKNTLYLQMNSLRAEDTAVYYCARGLFPGYFDYWGQGTLVTVSS VL: DIELTQPASVSVAPGQTARISCSGDNLRSKYAHWYQQKPGQAPVLVIYGDNNRPSGIPERFSGSNSGNTATLTISGTQAEDEADYYCSAYAMGSSPVFGGGTKLTVLG
binds | TP-2E5 (Fab, V domains shown, Human Fab (HuCal Gold), made in E. coli TG1) VH: QVQLQQSGPGLVKPSQTLSLTCAISGDSVSSNSAAWSWIRQSPGRGLEWLGMIFYRSKWNNDYAVSVKSRITINPDTSKNQFSLQLNSVTPEDTAVYYCARVNANGYYAYVDLWGQGTLVTVSS VL: DIQMTQSPSSLSASVGDRVTITCRASQPIYNSLSWYQQKPGKAPKLLIYGVSNLQSGVPSRFSGSGSGTDFTLTISSLQPEDFAVYYCLQVDNLPITFGQGTKVEIKR
binds | TP-3A4 (Fab, V domains shown, Human Fab (HuCal Gold), made in E. coli TG1) VH: QVQLVESGGGLVQPGGSLRLSCAASGFTFSSYWMHWVRQAPGKGLEWVSSISYDSSNTYYADSVKGRFTISRDNSKNTLYLQMNSLRAEDTAVYYCARYGGMDYWGQGTLVTVSS VL: DIELTQPPSVSVAPGQTARISCSGDNLRDKYASWYQQKPGQAPVLVIYSKSERPSGIPERFSGSNSGNTATLTISGTQAEDEADYYCSSYTLNPNLNYVFGGGTKLTVLG
